Reference: the supplement of paper PMC10567573

B1: TRAF3IP2 (parent)
chain: PRPPSNPPARGTLKTSNLPEELRK
B2: TRIM15 (parent)
chain: QSSGKILLCPLCQEEEQAETPMAP

Variants of: B1
Experiment: protein stability index of a GFP-peptide fusion (GPS, HEK-293T) (PSI 1-6); higher = more stable
Details: c terminus: a fixed tail appended
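Also: lentivirally expressed fusions sorted by FACS into six bins by GFP to DsRed ratio, PSI derived from sequencing read proportions per bin multiplied by bin number.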

Protein stability index of substitutions, site by site:
P3: L 4.5, G 4.82, F 4.13, I 5.05, H 4.02, M 4.42, C 5.15, E 5.35, A 5.13, K 4.88, D 5.07
P1: I 4.59, C 4.46, L 4.67, Y 4.46, T 4.88, K 4.63, H 4.64, D 4.6, W 4.76, N 4.59, Q 4.74, V 4.42, E 4.43, A 4.49, G 4.89, S 4.62, M 5.07, R 4.44, F 4.31
R2: W 4.85, G 5.12, K 4.56, F 5.09, M 5.08, E 4.85, V 4.63, Q 4.59, C 5.19, L 4.2, S 5.25

Variants of: B2
Experiment: as above
Details: c terminus: a fixed tail appended

Protein stability index of substitutions, site by site:
A18: Y 2.89, C 3.33, P 4.04, G 2.73, D 3.76, S 3.74, F 2.19, I 3.98, T 3.61, H 3.29
P21: V 3.73, G 3.19, Y 2.68, M 2.45, N 3.85, K 2.43, I 2.88, D 3.93, H 2.98, C 3.94, Q 3.39, R 1.83
I6: R 3.41, D 4.77, F 3.76, G 3.53, H 3.15, A 4.26, E 3.62, T 3.89, M 3.72, S 3.39, C 3.94
E16: M 2.34, S 2.59, Q 1.72, G 2.78, W 2.71, N 3.1, K 3.08, V 2.01, D 3.31, Y 3.08
A23: I 2.86, M 3.69, H 3.67, C 3.71, R 2.6, L 2.97, N 3.5, S 3.86, E 4.61, T 3.9, G 3.52, V 4.12
T20: G 2.49, L 3.8, Q 3.5, F 2.84, I 3.5, R 3.07, E 3.92, N 3.4, H 3.46, S 3.5, W 2.16, A 3.65
E14: A 2.43, V 2.75, F 1.73, P 3.39, M 2.14, D 3.69, R 3.3, C 2.55, K 3.14, W 1.73, Y 2.5, Q 2.55, N 3.32, I 2.54
Q13: I 3.26, V 3.91, S 3.54, Y 3.31, D 4.25, P 4.49, W 2.35, K 3.85, A 2.77, M 2.84, R 2.69
Q17: T 3.63, M 3.02, E 2.95, G 3.74, N 3.49, A 2.98, K 3.29, V 2.82, R 2.76, S 3.67, D 3.38, Y 2.87, H 3.05
L8: G 4.08, W 2.93, C 3.46, A 4.32, H 3.96, Y 3.28, Q 4.23, M 3.79
L11: V 4.09, W 3.52, N 5.01, H 3.68, T 4.81, C 3.28, E 4.72, K 4.54, F 3.42, Y 3.01, R 4.3, S 4.7
L7: H 3.62, F 3.47, D 4.35, A 3.65, Q 3.94, W 3.29, N 4.21, K 4.51, M 3.51, G 3.9, P 4.42, C 3.77, Y 3.15, T 3.31
E19: N 2.87, C 2, S 2.51, P 2.34, T 3.09, G 3.09, I 2.77, R 2.99, F 2.06, Q 2.61, Y 2.96, W 1.52, K 3.94
S2: W 2.38, F 2.18, M 2.79, N 2.86, R 3.28, L 2.67, I 2.62, K 3.47, H 3.32, E 4, V 2.56, D 3.78, T 3.34, A 3.52, Y 2.85
P24: I 3.85, T 3.48, K 3.17, C 2.47, Q 3.41, F 3.25, M 3.31, R 1.71, A 4, L 3.09, E 4.29, Y 2.68
K5: N 3.46, S 3.44, A 3.27, Y 2.36, P 3.65, I 2.17, Q 3.98, R 3.22, D 3.72, T 3.06, L 2.86, M 2.41, G 3.77, F 2.1
C12: P 5.04, Y 4.54, A 4.22, V 4.62, H 4.66, T 5.43, D 4.87, K 4.93, M 4.86, E 5.46, L 4.18, F 4.81, I 4.68, W 3.75
Q1: L 3.13, M 2.63, S 3.28, N 3.06, P 2.73, R 3.35, E 3.98, I 3.27, W 3.08, Y 1.58, T 3.16, K 3.46
C9: F 4.38, T 5.22, M 4.5, R 5.71, H 5.15, L 4, Y 4.36, A 5.01, W 4.24, P 5.54
P10: G 4.31, Y 2.71, Q 3.77, M 2.75, N 4.4, V 1.82, E 4.06, A 3.35, I 1.99, H 3.42, S 3.56, F 2.13
S3: P 3.23, Q 3.63, R 3.73, G 3.34, V 3.57, I 3.31, T 3.58, F 3, C 2.33, A 3.62, N 3.62, K 3.21, M 3.24, Y 2.82
E15: F 2, W 1.65, V 2.35, Y 2.53, T 2.77, Q 3.54, P 2.84, D 2.97, N 2.28, R 1.81, K 3.05, G 2.9, S 2.75, L 2.5
G4: C 4.14, E 3.72, S 2.86, W 2.21, P 3.24, Q 3.29, R 3.72, N 2.76, M 3.3, Y 3.4, H 2.96, L 2.93, I 3.34, A 3.07, T 3.66
M22: G 4.22, D 4.14, E 4.34, C 5.56, L 4.28, F 2.86, I 3.45, T 4.48, K 3.16
